Substrate in this data set: CC(=O)Oc1ccc([N+](=O)[O-])cc1
Briefly: purified protein. Particulars: 50 mM Tris-HCl pH 8.0, 40 °C, 5 min, 0.08-1.0 mM substrate. It counts as biochemical, uncultured sludge bacterium.

By Km is commonly meant the concentration of substrate that gives half-maximal velocity. As usually defined, the kcat is the maximal rate divided by the concentration of active sites.

B1: Est6 (uncultured sludge bacterium) (protein)
chain: MTELRINDDLVRWTVDRRPATADEALRALETRPLVLLMHGFGSFEGDLISLAAELPDGIVCASPRAPLTLPPPTVNGYAWWEIVFRADGTVVRSDPPAFEDSDAHTATLAILAWLDALDARVAGGLRTVVPLGFSQGGCMVTSLLRMQPTRFPCGVNCSGFVAPGSYAGDPELAAIRPPLFWGRDPADPIIEAERIDATAVWSAAHTAIEAHIYHGIGHGIGREEIADISAFIERHLAEAEH
notes: pPAL7 N-terminal Profinity eXact tag cleaved on column; E. coli BL21 Star (DE3); monomer; primers encode MTELRI... start and ...AEAEH end
As to B1, the Km stood at 1070 µM and the kcat is 10.46 s⁻¹.

The values are drawn from paper PMC9786865, “Molecular Cloning and Characterization of a New Family VI Esterase from an Activated Sludge Metagenome” (Microorganisms, 2022).
